In paper doi:10.1101/2024.06.27.600912 (bioRxiv, 2024):
Numbering of substitutions follows the chain as printed. Names and notes keep the numbering of the source.

Molecular target: the molecule itself
Test: cryo-EM structure

B1: MORC2 phosphodead mutant (S725A, S730A, S739A, S743A, S777A, S779A), full length (natural protein)
chain: MAFTNYSSLNRAQLTFEYLHTNSTTHEFLFGALAELVDNARDADATRIDIYAERREDLRGGFMLCFLDDGAGMDPSDAASVIQFGKSAKRTPESTQIGQYGNGLKSGSMRIGKDFILFTKKEDTMTCLFLSRTFHEEEGIDEVIVPLPTWNARTREPVTDNVEKFAIETELIYKYSPFRTEEEVMTQFMKIPGDSGTLVIIFNLKLMDNGEPELDIISNPRDIQMAETSPEGTKPERRSFRAYAAVLYIDPRMRIFIHGHKVQTKRLSCCLYKPRMYKYTSSRFKTRAEQEVKKAEHVARIAEEKAREAESKARTLEVRLGGDLTRDSRVMLRQVQNRAITLRREADVKKRIKEAKQRALKEPKELNFVFGVNIEHRDLDGMFIYNCSRLIKMYEKVGPQLEGGMACGGVVGVVDVPYLVLEPTHNKQDFADAKEYRHLLRAMGEHLAQYWKDIAIAQRGIIKFWDEFGYLSANWNQPPSSELRYKRRRAMEIPTTIQCDLCLKWRTLPFQLSSVEKDYPDTWVCSMNPDPEQDRCEASEQKQKVPLGTFRKDMKTQEEKQKQLTEKIRQQQEKLEALQKTTPIRSQADLKKLPLEVTTRPSTEEPVRRPQRPRSPPLPAVIRNAPSRPPSLPTPRPASQPRKAPVISSTPKLPALAAREEASTSRLLQPPEAPRKPANTLVKTASRPAPLVQQLSPSLLPNSKSPREVPSPKVIKTPVVKKTEAPIKLAPATPSRKRAVAVADEEEVEEEAERRKERCKRGRFVVKEEKKDSNELADAAGEEDSADLKRAQKDKGLHVEVRVNREWYTGRVTAVEVGKHVVRWKVKFDYVPTDTTPRDRWVEKGSEDVRLMKPPSPEHQSLDTQQEGGEEEVGPVAQQAIAVAEPSTSECLRIEPDTTALSTNHETIDLLVQILRNCLRYFLPPSFPISKKQLSAMNSDELISFPLKEYFKQYEVGLQNLCNSYQSRADSRAKASEESLRTSERKLRETEEKLQKLRTNIVALLQKVQEDIDINTDDELDAYIEDLITKGD
binding result: binds

B2: full-length MORC2 ATPase-dead mutant S87A (natural protein)
chain: B1 chain with S87A, A725S, A730S, A739S, A743S, A777S, A779S
binding result: binds
